Data published in patent US12709637B2, “Regulated synthetic gene activation systems” (TRUSTEES OF BOSTON UNIVERSITY, priority 2023, dated 2026).

Legend:
[1] = test system: mCherry reporter in Primary T cells; assay: GZV inducible systems driving mCherry reporter in Primary T cells; format: cell-based
Protocol: Primary T cells were co-transduced with synZiFTR 2.0 and a minimally expressed mCherry reporter. Upon addition of GZV, the synZiFTR construct activated mCherry expression, which was measured on a flow cytometer (see e.g., FIG. 10).

[2] = test system: mCherry reporter in Primary T cells; assay: 4OHT inducible systems driving mCherry reporter in Primary T cells; format: cell-based
Excerpt: Primary T cells were co-transduced with synZiFTR 2.0 and a minimally expressed mCherry reporter.

B1: NFZ: transcriptional activator, SEQ ID NO: 57, domains from NCOA3, FOXO3 and ZNF473; tested with TIMs on N terminus (protein, listed as Homo sapiens)
chain: EGQSDERALLDQLHTLLSNTDATGLEEIDRALGIPELVNQGQALEPKQGGGGSGHEKFPSDLDLDMFNGSLECDMESIIRSELMDADGLDFNFDSGGGGSGFVTLKDVGMDFTLGDWEQLGLEQGDTFWDTALDNCQDLFLLDPP
In the case of B1, the “activation potency of the transcriptional activator on fusing TIMs domains on the N terminus” value (from here on “activation potency … on the N terminus”) [1] is reported as “enhanced activation potency” and the “activation potency … on the N terminus” value [2] is reported as “enhanced activation potency”.

B2: 3Z: transcriptional activator, SEQ ID NO: 303; tested with TIMs on N terminus (protein)
chain: MAEEFVTLKDVGMDFTLGDWEQLGLEQGDTFWDTALDNCQDLFLLDPPRPNLTSHPDGSEDLEPLAGGSPEATSMAEEFVTLKDVGMDFTLGDWEQLGLEQGDTFWDTALDNCQDLFLLDPPRPNLTSHPDGSEDLEPLAGGSPEATSMAEEFVTLKDVGMDFTLGDWEQLGLEQGDTFWDTALDNCQDLFLLDPPRPNLTSHPDGSEDLEPLAGGSPEATS
In the case of B2, the “activation potency … on the N terminus” value [2] is reported as “enhanced activation potency”.
